From patent US20220098305A1 (Hoffmann-La Roche, published 2022)
Positions count from the first letter of the chain named. In names and notes the source's numbering stands. Read-outs that look alike come from different tables or passages of the source.

Assays:
murine ICOS = biological target: T1, murine ICOS (murine, UniProt Q9WVS0 21-200); experiment: flow cytometry, % positive cells; murine ICOS on recombinant CHO cells according to the legend, on pre-activated murine splenocytes according to the example
T1 sequence: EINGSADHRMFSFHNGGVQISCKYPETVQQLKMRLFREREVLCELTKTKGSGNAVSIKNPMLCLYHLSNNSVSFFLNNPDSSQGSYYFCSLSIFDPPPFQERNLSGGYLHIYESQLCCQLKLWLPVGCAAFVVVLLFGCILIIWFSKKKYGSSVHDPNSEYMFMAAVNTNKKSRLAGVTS

human ICOS [1] = biological target: T2, human ICOS (human, UniProt Q9Y6W8 21-199); experiment: flow cytometry, pre-activated human PBMCs, CD8+ subset
T2 construct: The cell that carries it is named under assay; also called huICOS; CD278
T2 sequence: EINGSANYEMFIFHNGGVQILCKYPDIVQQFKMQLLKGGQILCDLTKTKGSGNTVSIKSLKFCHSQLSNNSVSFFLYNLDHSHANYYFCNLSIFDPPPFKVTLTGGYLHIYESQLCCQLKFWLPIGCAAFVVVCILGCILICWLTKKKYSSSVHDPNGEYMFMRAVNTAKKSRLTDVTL
Method: (§1) Briefly, suspension cells were harvested, counted, checked for viability and re-suspended at 1 million cells per ml in FACS buffer (PBS with 0.1% BSA). […] The staining was fixed for 20 min at 4° C. in the dark, using 75 μl of 1% PFA in FACS buffer per well.
(§2) Briefly, Peripheral blood mononuclear cells (PBMCs) were prepared by Histopaque (Sigma-Aldrich, Cat No. 10771-500ML Histopaque-1077) density centrifugation of enriched lymphocyte preparations of heparinized blood obtained from a Buffy Coat (“Blutspende Zürich”). The blood was diluted 1:2 with sterile DPBS and layered over Histopaque gradient (Sigma, #H8889). After centrifugation (450×g, 30 minutes, room temperature), the plasma above the PBMC-containing interphase was discarded and PBMCs transferred in a new falcon tube subsequently filled with 50 ml of PBS. The mixture was centrifuged (400×g, 10 minutes, room temperature), the supernatant discarded and the PBMC pellet washed twice with sterile PBS (centrifugation steps 350×g, 10 minutes). The resulting PBMC population was counted automatically (Cedex HiRes) and stored in RPMI1640 medium containing 10% FCS and 1% Glutamax (Gibco 35050061). […] After incubation the PBMCs were used for a subsequent binding experiment, as described above.

human FAP [2] = biological target: T3, human FAP (human, UniProt Q12884 1-760); experiment: flow cytometry, NIH/3T3-huFAP clone 19 cells
T3 construct: also called hu FAP

human FAP [3] = biological target: T3, human FAP; experiment: flow cytometry on NIH/3T3-huFAP clone 19 cells, AF647-labelled anti-human Fc secondary antibody, MFI
Method: as §1
(§3) Fluorescence was analyzed by FACS using a FACS Fortessa (Software FACS Diva). Binding curves and EC₅₀ values were obtained using GraphPadPrism 7.

human FAP [4] = biological target: T3, human FAP; experiment: flow cytometry, NIH/3T3-huFAP clone 19 cells; remark: listed apart in the source
Method: as §1, §3

murine FAP [5] = biological target: T4, murine FAP (murine, UniProt P97321 26-761, limits assumed); experiment: flow cytometry, % positive cells; cells bearing murine FAP not given
T4 construct: also called mouse FAP

human ICOS [6] = biological target: T2, human ICOS; experiment: flow cytometry, pre-activated human PBMCs, CD4+ subset
Method: as §1, §2

human ICOS [7] = biological target: T2, human ICOS; experiment: flow cytometry, CHO cells expressing human ICOS
Method: as §1, §3

murine FAP [8] = biological target: T4, murine FAP; experiment: flow cytometry, cells carrying murine FAP not told
cynomolgus ICOS [9] = biological target: T5, cynomolgus ICOS (cynomolgus, UniProt Q9Y6W8 21-195 (human entry)); experiment: flow cytometry on cynomolgus PBMCs activated 48 h with CD3/CD28 beads, CD4+ subset, MFI
T5 chain: T2 sequence with T54K, H81R, A129T, L136F, S152T, D176G, V177T, L179P

human FAP [10] = biological target: T3, human FAP; experiment: flow cytometry on NIH/3T3-huFAP clone 19 cells, MFI on single cells
Method: as §1

human ICOS [11] = biological target: T2, human ICOS; experiment: flow cytometry, CHO cells expressing human ICOS; remark: listed apart in the source
cynomolgus ICOS [12] = biological target: T5, cynomolgus ICOS; experiment: flow cytometry on cynomolgus PBMCs activated 48 h with CD3/CD28 beads, CD8+ subset, MFI
Method: as §1
(§4) Briefly, cynomolgus PBMCs were activated for 48 hours using Dynabeads™ Human T-Activator CD3/CD28 (Thermo Fischer #11131D) according to manufacturer instruction and stored in RPMI1640 medium containing 10% FCS and 1% Glutamax (Gibco 35050061) at 37° C., in a humidified incubator until subsequent binding experiment was performed, as described above.

human ICOS [13] = biological target: T2, human ICOS; experiment: flow cytometry on CHO cells expressing human ICOS, PE-labelled secondary antibody; y axis printed LOG10(MFI PE)
human FAP [14] = biological target: T3, human FAP; experiment: flow cytometry, NIH/3T3-huFAP clone 19 cells; remark: listed apart in the source
human ICOS [15] = biological target: T2, human ICOS; experiment: flow cytometry, SR cells
cynomolgus ICOS [16] = biological target: T5, cynomolgus ICOS; experiment: flow cytometry, activated cynomolgus PBMCs, CD4+ subset
Method: as §1, §4

human ICOS [17] = biological target: T2, human ICOS; experiment: cell-based or functional assay
cynomolgus ICOS [18] = biological target: T5, cynomolgus ICOS; experiment: flow cytometry, activated cynomolgus PBMCs, CD8+ subset
Method: as §1, §4

cynomolgus ICOS [19] = biological target: T5, cynomolgus ICOS; experiment: flow cytometry on cynomolgus PBMCs activated 48 h with CD3/CD28 beads, CD4+ subset, MFI
Method: as §1, §4

human FAP [20] = biological target: T3, human FAP; experiment: flow cytometry on NIH/3T3-huFAP clone 19 cells, geometric MFI

B1: Molecule 10, bispecific monovalent anti-ICOS (1167)/anti-FAP (4B9) huIgG1 P329GLALA kih antibody (1+1) (bispecific antibody)
heavy 1: EIVLTQSPGTLSLSPGERATLSCRASQSVTSSYLAWYQQKPGQAPRLLINVGSRRATGIPDRFSGSGSGTDFTLTISRLEPEDFAVYYCQQGIMLPPTFGQGTKVEIKSSASTKGPSVFPLAPSSKSTSGGTAALGCLVKDYFPEPVTVSWNSGALTSGVHTFPAVLQSSGLYSLSSVVTVPSSSLGTQTYICNVNHKPSNTKVDKKVEPKSCDKTHTCPPCPAPEAAGGPSVFLFPPKPKDTLMISRTPEVTCVVVDVSHEDPEVKFNWYVDGVEVHNAKTKPREEQYNSTYRVVSVLTVLHQDWLNGKEYKCKVSNKALGAPIEKTISKAKGQPREPQVCTLPPSRDELTKNQVSLSCAVKGFYPSDIAVEWESNGQPENNYKTTPPVLDSDGSFFLVSKLTVDKSRWQQGNVFSCSVMHEALHNHYTQKSLSLSP
light 1: EVQLLESGGGLVQPGGSLRLSCAASGFTFSSYAMSWVRQAPGKGLEWVSAIIGSGASTYYADSVKGRFTISRDNSKNTLYLQMNSLRAEDTAVYYCAKGWFGGFNYWGQGTLVTVSSASVAAPSVFIFPPSDEQLKSGTASVVCLLNNFYPREAKVQWKVDNALQSGNSQESVTEQDSKDSTYSLSSTLTLSKADYEKHKVYACEVTHQGLSSPVTKSFNRGEC
heavy 2: not shown
light 2: DIQMTQSPSSVSASVGDRVTITCRASQGINNFLAWYQQKPGKAPKLLIYDASSLQSGVPSRFAGSGSGTDFTLTISSLQPEDFATYYCQQYNFYPLTFGGGTMVEIKRTVAAPSVFIFPPSDRKLKSGTASVVCLLNNFYPREAKVQWKVDNALQSGNSQESVTEQDSKDSTYSLSSTLTLSKADYEKHKVYACEVTHQGLSSPVTKSFNRGEC
notes: CrossFab (VLCH1/VHCL) on the FAP arm; also called FAP-ICOS (1+1)
**Q.** Which results are given for B1?
**A.** binding result (murine ICOS): binds; EC50 (human ICOS [1]): ~124 nM; EC50 (human FAP [2]): 1.54 nM; EC50 (read off the curve) (human FAP [3]): ~1000 pM; EC50 (human FAP [4]): 1.4 nM; EC50 (read off the curve) (murine FAP [5]): ~200 pM; EC50 (human ICOS [6]): ~58 nM; EC50 (human ICOS [7]): 41.7 nM; EC50 (murine FAP [8]): 0.177 nM; binding result (cynomolgus ICOS [9]): binds; EC50 (read off the curve) (human FAP [10]): ~2000 pM

B2: Molecule 11, bispecific 1+1 head-to-tail anti-ICOS (1167)/anti-FAP (4B9) huIgG1 P329GLALA kih antibody (bispecific antibody)
heavy 1: DKTHTCPPCPAPEAAGGPSVFLFPPKPKDTLMISRTPEVTCVVVDVSHEDPEVKFNWYVDGVEVHNAKTKPREEQYNSTYRVVSVLTVLHQDWLNGKEYKCKVSNKALGAPIEKTISKAKGQPREPQVCTLPPSRDELTKNQVSLSCAVKGFYPSDIAVEWESNGQPENNYKTTPPVLDSDGSFFLVSKLTVDKSRWQQGNVFSCSVMHEALHNHYTQKSLSLSPGGGGGSGGGGSGGGGSGGGGSEIVLTQSPGTLSLSPGERATLSCRASQSVTSSYLAWYQQKPGQAPRLLINVGSRRATGIPDRFSGSGSGTDFTLTISRLEPEDFAVYYCQQGIMLPPTFGQGTKVEIK
heavy 2: not shown
light: B1 light 2
notes: names and VH/VL of 4B9 are swapped; also called 1+1_HT; FAP-ICOS (HT)
**Q.** Does B2 bind (murine ICOS)?
**A.** Result: binds

**Q.** What about the “EC50 (read off the curve)” value (human FAP [3]) of the same binder?
**A.** Its value is ~1000 pM.

**Q.** And the EC50 (human FAP [4])?
**A.** Its EC50 is 1.15 nM.

**Q.** What about the “EC50 (read off the curve)” value (murine FAP [5]) of the same binder?
**A.** The value was ~400 pM.

**Q.** And the EC50 (human ICOS [7])?
**A.** Its EC50 is 4.17 nM.

**Q.** What about the EC50 (murine FAP [8]) of the same binder?
**A.** The EC50 was 0.413 nM.

**Q.** Does B2 bind (cynomolgus ICOS [9])?
**A.** Result: binds

B3: Molecule 12, bispecific 2+1 anti-ICOS (1167)/anti-FAP (4B9) Crossfab-IgG P329G LALA (bispecific antibody)
heavy 1: EVRLLESGGGLVQPGGSLRLSCAASGFTFNTYAVHWVRQAPGKGLEWVSGIGGSGVRTYYADSVKGRLTISRDNSKNTLYLQMNSLRAEDTAIYFCAKDIYVADFTGYAFDIWGQGTMVTVSSASTKGPSVFPLAPSSKSTSGGTAALGCLVEDYFPEPVTVSWNSGALTSGVHTFPAVLQSSGLYSLSSVVTVPSSSLGTQTYICNVNHKPSNTKVDEKVEPKSCDKTHTCPPCPAPEAAGGPSVFLFPPKPKDTLMISRTPEVTCVVVDVSHEDPEVKFNWYVDGVEVHNAKTKPREEQYNSTYRVVSVLTVLHQDWLNGKEYKCKVSNKALGAPIEKTISKAKGQPREPQVCTLPPSRDELTKNQVSLSCAVKGFYPSDIAVEWESNGQPENNYKTTPPVLDSDGSFFLVSKLTVDKSRWQQGNVFSCSVMHEALHNHYTQKSLSLSP
light 1: B1 light 2
heavy 2: not shown
light 2: B1 light 1
**Q.** Which results are given for B3?
**A.** EC50 (human ICOS [1]): ~12.6 nM; EC50 (human FAP [2]): 1.82 nM; EC50 (human ICOS [6]): ~12.6 nM; EC50 (read off the curve) (human FAP [10]): ~2000 pM

B4: Molecule 15, bispecific 2+1 anti-ICOS (009v1)/anti-FAP (4B9) huIgG1 P329GLALA kih (bispecific antibody)
heavy 1: EVRLDETGGGVVQPGRPMELSCVASGFTFSDYWMNWVRQSPEKGLEWVAQIRNKPYNYETYYSDSVKGRFTISRDDSKSRVYLQMNNLRAEDMGIYYCTWPRLRSSDWHFDVWGAGTTVTVSSASTKGPSVFPLAPSSKSTSGGTAALGCLVKDYFPEPVTVSWNSGALTSGVHTFPAVLQSSGLYSLSSVVTVPSSSLGTQTYICNVNHKPSNTKVDKKVEPKSCDKTHTCPPCPAPEAAGGPSVFLFPPKPKDTLMISRTPEVTCVVVDVSHEDPEVKFNWYVDGVEVHNAKTKPREEQYNSTYRVVSVLTVLHQDWLNGKEYKCKVSNKALGAPIEKTISKAKGQPREPQVCTLPPSRDELTKNQVSLSCAVKGFYPSDIAVEWESNGQPENNYKTTPPVLDSDGSFFLVSKLTVDKSRWQQGNVFSCSVMHEALHNHYTQKSLSLSPGGGGGSGGGGSGGGGSGGGGSEIVLTQSPGTLSLSPGERATLSCRASQSVTSSYLAWYQQKPGQAPRLLINVGSRRATGIPDRFSGSGSGTDFTLTISRLEPEDFAVYYCQQGIMLPPTFGQGTKVEIK
heavy 2: not shown
light: AIQMTQSPSSLSASLGGEVTITCKASQDINKNIAWYQHKPGRGPRLLIWYTSTLQTGIPSRFSGSGSGRDYSFTISNLEPEDFATYYCLQFDNLYTFGSGTKLEIRRTVAAPSVFIFPPSDEQLKSGTASVVCLLNNFYPREAKVQWKVDNALQSGNSQESVTEQDSKDSTYSLSSTLTLSKADYEKHKVYACEVTHQGLSSPVTKSFNRGEC
**Q.** Which results are given for B4?
**A.** EC50 (human ICOS [11]): 0.516 nM; Max (Log10(MFI)) (human ICOS [11]): 3.06 Log10(MFI); EC50 (read off the curve) (cynomolgus ICOS [12]): ~3000 pM; EC50 (read off the curve) (human ICOS [13]): ~500 pM; EC50 (human FAP [14]): 1.98 pM; EC50 (human ICOS [15]): 1.39 pM; EC50 (cynomolgus ICOS [16]): 2.09 nM; EC50 (human FAP [4]): 2.97 nM; EC50 of activation of Jurkat-NFAT reporter cell line (human ICOS [17]): 4.44 nM; Max (Counts/sec), Jurkat-NFAT reporter cell line (human ICOS [17]): 39700 Counts/sec; EC50 (human ICOS [7]): 1.12 nM; EC50 (cynomolgus ICOS [18]): 3.5 nM; EC50 (read off the curve) (cynomolgus ICOS [19]): ~2000 pM; EC50 (read off the curve) (human FAP [20]): ~2 nM
